The numbers were not newly measured in patent US12251426B2 (priority 2020, dated 2025), which cites them from elsewhere.

B1: Bovine lactoferrin: water-soluble protein obtainable through bovine milk (protein, UniProt P24627 20-708, looked up)
Lactotransferrin: APRKNVRWCTISQPEWFKCRRWQWRMKKLGAPSITCVRRAFALECIRAIAEKKADAVTLDGGMVFEAGRDPYKLRPVAAEIYGTKESPQTHYYAVAVVKKGSNFQLDQLQGRKSCHTGLGRSAGWIIPMGILRPYLSWTESLEPLQGAVAKFFSASCVPCIDRQAYPNLCQLCKGEGENQCACSSREPYFGYSGAFKCLQDGAGDVAFVKETTVFENLPEKADRDQYELLCLNNSRAPVDAFKECHLAQVPSHAVVARSVDGKEDLIWKLLSKAQEKFGKNKSRSFQLFGSPPGQRDLLFKDSALGFLRIPSKVDSALYLGSRYLTTLKNLRETAEEVKARYTRVVWCAVGPEEQKKCQQWSQQSGQNVTCATASTTDDCIVLVLKGEADALNLDGGYIYTAGKCGLVPVLAENRKSSKHSSLDCVLRPTEGYLAVAVVKKANEGLTWNSLKDKKSCHTAVDRTAGWNIPMGLIVNQTGSCAFDEFFSQSCAPGADPKSRLCALCAGDDQGLDKCVPNSKEKYYGYTGAFRCLAEDVGDVAFVKNDTVWENTNGESTADWAKNLNREDFRLLCLDGTRKPVTEAQSCHLAVAPNHAVVSRSDRAAHVKQVLLHQQALFGKNGKNCPDKFCLFKSETKNLLFNDNTECLAKLGGRPTYEEYLGTEYVTAIANLKKCSTSPLLEACAFLTR
With B1, the water solubility entry was “water-soluble”.
